According to the supplement of paper PMC9170038:

System: MS2 coat protein
Experiment: apparent KD of MS2 coat protein; designed switch direction (-1 OFF switch, 1 ON switch): -1; higher = weaker reporter binding
How it was run: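 RNA switches sharing common flanks were transcribed by stalled E. coli RNA polymerase on Illumina chips. A doubling series of SNAP-549-labelled MS2 coat protein, from 0.7 or 1.5 nM to 3 µM, was applied in Tris-HCl pH 7.5 buffer with KCl, MgCl2, BSA, DTT, tRNA and Tween-20. Each step lasted 0.8–1.5 h at the bottom of the series and 10–20 min at the top. Normalised cluster fluorescence was curve-fitted, giving apparent KD as the per-design median over clusters.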

[1] = input ligand: microRNA oligo, concentration not stated
[2] = Eterna round: R95, input ligand: microRNA oligo, concentration not stated
[3] = Eterna round: R95, input ligand: FMN 200 uM
[4] = Eterna round: R95, input ligand: none

“UUUUUAAAUGAAGGAUAUACUUAACAUGAGGAUCACCCAUGUGGUGUUGUGAGUGAGUGAGUUUAGUAGAAGGUCAAGUAUUUU [JMF's solution 44] (Eterna round: R96, puzzle: Exclusion NG 2)” was tested, and the “apparent KD of MS2 coat protein” value (input ligand: FMN 200 uM) was 814 nM, the “apparent KD of MS2 coat protein” value [1] was 339 nM and the “apparent KD of MS2 coat protein” value (input ligand: none) was 392 nM.

In the case of “GUGUACGGAGGAUAUAUGUGGGCAGCAUACGCUGCAGCUUCACAUGAGGAUCACCCAUGUAGAAGGCUGUACAC [Mat - Exclusion 2 - Mod of Hyphema - D102] (puzzle: Exclusion 2)”, the “apparent KD of MS2 coat protein” value [2] is reported as 21.4 nM.

With “UUAGCGUAAGUAAGGAUAUGCUGGUCGAAAGAUCAGCAGAAGGUACAUGAGGAUCACCCAUGUGGAUUCGUUAU [Mod of JL 11 - Jieux - Brourd's mod of Exclusion 4] (Eterna round: R97, puzzle: Brourd's mod of Exclusion 4)” the “apparent KD of MS2 coat protein” value (input ligand: FMN 200 uM) was 73 nM and the “apparent KD of MS2 coat protein” value (input ligand: none) was 27.5 nM.

“AGGUGUGAAGGAUAUAGCGUGGUCGACAUGAGGAUCACCCAUGUGAGAUGGUCGCCGGGUCUAGAAGGUUAGCUAA [Eternabot (L1) Solution 97] (Eterna round: R97, puzzle: Exclusion 5)” was tested, and the “apparent KD of MS2 coat protein” value (input ligand: FMN 200 uM) was 82.5 nM and the “apparent KD of MS2 coat protein” value (input ligand: none) was 97.2 nM.

With “GGUUGGCGAGGAUAUACAUGAGGAUCACCCAUGUGAGACAAAAAAGUGAGGAAGAAAAGUAGAAGGCGCUGACG [salish99_ex3_r3_021] (puzzle: Exclusion 3)” the “apparent KD of MS2 coat protein” value [3] was 362 nM, the “apparent KD of MS2 coat protein” value [2] was 54.1 nM and the “apparent KD of MS2 coat protein” value [4] was 64.1 nM.

For “UACCUGAGGCAAAGCUUUAGGUAAACAUGAGGAUCACCCAUGUAGGAUAUGGUAGGCAAAGCUUACCAGAAGGACAUGAAAAUU [Mat - Exclusion NG 3 - Mod of JL - D36] (Eterna round: R96, puzzle: Exclusion NG 3)”, the “apparent KD of MS2 coat protein” value (input ligand: FMN 200 uM) was 333 nM, the “apparent KD of MS2 coat protein” value [1] was 53.3 nM and the “apparent KD of MS2 coat protein” value (input ligand: none) was 87.8 nM.

In the case of “AUGGGUCCUUUCGGAGCGACAUGAGGAUCACCCAUGUGUGUUGAGGAUAUCCACUGCUAAGGACGGGAGAAGGCAGUGUACUGU [Ex NG3 #84] (Eterna round: R96, puzzle: Exclusion NG 3)”, the “apparent KD of MS2 coat protein” value (input ligand: FMN 200 uM) is reported as 36.2 nM, the “apparent KD of MS2 coat protein” value [1] is reported as 26.7 nM and the “apparent KD of MS2 coat protein” value (input ligand: none) is reported as 49.4 nM.

For “GUGUACAGAGGAUAUGCUUGAAUCUAGCGAAGCUAGGUUCGACAUGAGGAUCACCCAUGUAGAAGGCUGUACAC [Dot plot directed A v3] (puzzle: Exclusion 2)”, the “apparent KD of MS2 coat protein” value [2] was 13.4 nM.

In the case of “AAUUCACAUGAGGAUCACCCAUGUCAGGAUAUGGUUACGCGGGUUUCGGUGCGUGUGGCCAGAAGGGACAGCUA (puzzle: Exclusion 1)”, the “apparent KD of MS2 coat protein” value [2] is reported as 54.6 nM.

“UGUAACCUAGGAUAUACAUGAGGAUCACCCAUGUAAUGUAGUAUAGUGUGUGUAAGGUGUAGAAGGAGGAAUGU [LRO-Excl05-23-Smart Aleck] (Eterna round: R97, puzzle: Exclusion 3)” was tested, and the “apparent KD of MS2 coat protein” value (input ligand: FMN 200 uM) was 76.2 nM and the “apparent KD of MS2 coat protein” value (input ligand: none) was 52.6 nM.

With “AUUAAGCAGCAGGAUAUAAGUAUCUAAAGGUGGUUAGAAGGGCUGACAUGAGGAUCACCCAUGUGCUCUUCGUG [Reusat] (puzzle: Exclusion 6)” the “apparent KD of MS2 coat protein” value [2] was 13.3 nM.

With “AUCGUGCAGCAAAGCUGUACGAGUACAUGAGGAUCACCCAUGUAGGAUAUGGUACGCAAAGCGUGCUAGAAGGAUAUGUGUAAG [Mat - Exclusion NG 3 - Mod of JL - D85] (Eterna round: R96, puzzle: Exclusion NG 3)” the “apparent KD of MS2 coat protein” value (input ligand: FMN 200 uM) was 65.5 nM, the “apparent KD of MS2 coat protein” value [1] was 39.9 nM and the “apparent KD of MS2 coat protein” value (input ligand: none) was 61.6 nM.

“ACAAGCUUUGUUGGGUGGUACAUGAGGAUCACCCAUGUUUGCCGCGUCUUGUGGGCCCGGGCCCGCGGCCCGGGCCC [-41.8, -63.9, A 12%] (Eterna round: R97, puzzle: Sensor, turn-off variant 1)” was tested, and the “apparent KD of MS2 coat protein” value (input ligand: FMN 200 uM) was 403 nM and the “apparent KD of MS2 coat protein” value (input ligand: none) was 460 nM.

“UAGAUGUGAGGAUAUGGUAAAGAUAGAAUGAUGAAAGAACUCCAGAAGGCACAUGAGGAUCACCCAUGUAGAUG [Mat - Exclusion 4 - Mod of JL - D29] (puzzle: Exclusion 4)” was tested, and the “apparent KD of MS2 coat protein” value [2] was 22.3 nM.

“UUAUACGCUGAGGAUAUCAUCACUGAGAGGUGAUGAGAAGGCGGUACAUGAGGAUCACCCAUGUCUAUGGGCAG [Ex-6 Malc#21] (puzzle: Exclusion 6)” was tested, and the “apparent KD of MS2 coat protein” value [2] was 187 nM.

In the case of “GCUGAUCGGCUAGGAUAUACAUUGAUCCUAGGAGGCUAAGCCUCAAAGACAUGAGGAUCACCCAUGUAGAAGGAGCAGCAGUAA [Armaonve] (Eterna round: R96, puzzle: Exclusion NG 2)”, the “apparent KD of MS2 coat protein” value (input ligand: FMN 200 uM) is reported as 103 nM, the “apparent KD of MS2 coat protein” value [1] is reported as 23.3 nM and the “apparent KD of MS2 coat protein” value (input ligand: none) is reported as 39.4 nM.

“CGGUGCUGAGGAUAUACAUGAGGAUCACCCAUGUGUUCUUGCUAGAAAACUGGCAGAUGUAGAAGGCGGUACUG [Mat - Exclusion 3 - Mod of JL D98] (puzzle: Exclusion 3)” was tested, and the “apparent KD of MS2 coat protein” value [3] was 285 nM, the “apparent KD of MS2 coat protein” value [2] was 35.4 nM and the “apparent KD of MS2 coat protein” value [4] was 36.6 nM.

For “CGGUGCUCGUGGAAACAUGAGGAUCACCCAUGUUGAGUUAGCGAGGAUAUCGGUAACACAUGUCACGAGAAGGCGCGAACCAGA [Ex NG3 #32] (Eterna round: R96, puzzle: Exclusion NG 3)”, the “apparent KD of MS2 coat protein” value (input ligand: FMN 200 uM) was 18.7 nM, the “apparent KD of MS2 coat protein” value [1] was 9.96 nM and the “apparent KD of MS2 coat protein” value (input ligand: none) was 14.9 nM.

For “GGAAGGAAGGAACAAGUUAACAUGAGGAUCACCCAUGUUGACUUCAUGUGCACGCAAAGCGUGCAAGCUCGUCUUAU [AK-miRNA-r3-16] (Eterna round: R97, puzzle: Sensor, turn-off variant 1)”, the “apparent KD of MS2 coat protein” value (input ligand: FMN 200 uM) was 18.3 nM and the “apparent KD of MS2 coat protein” value (input ligand: none) was 17.3 nM.

In the case of “UUGAUUAGAAAGGAUAUCGGAUACUUGAGAGUCCGAGAAGGUUUUACAUGAGGAUCACCCAUGUGGCAUCCUCG [Eternabot (L1) Solution 99] (Eterna round: R97, puzzle: Exclusion 6)”, the “apparent KD of MS2 coat protein” value (input ligand: FMN 200 uM) is reported as 476 nM and the “apparent KD of MS2 coat protein” value (input ligand: none) is reported as 805 nM.

For “GUCAGGUAUCGAGGAUAUGUGAAAGGAAGUGUAGCAGAAGGCGAGGGCUUGACAUGAGGAUCACCCAUGUGAAGUGAUUCGAAG [17th something] (Eterna round: R96, puzzle: Exclusion NG 1)”, the “apparent KD of MS2 coat protein” value (input ligand: FMN 200 uM) was 76.4 nM, the “apparent KD of MS2 coat protein” value [1] was 41 nM and the “apparent KD of MS2 coat protein” value (input ligand: none) was 64.2 nM.

With “AAAAGAAAAGUAGGAUAUGUGAAAGGAAGUGUAACAGAAGGACUGUGGGUCUUCCGACAUGAGGAUCACCCAUGUAAAAGAAAA [PowerStrip EXNG 1.8] (Eterna round: R96, puzzle: Exclusion NG 1)” the “apparent KD of MS2 coat protein” value (input ligand: FMN 200 uM) was 114 nM, the “apparent KD of MS2 coat protein” value [1] was 6.35 nM and the “apparent KD of MS2 coat protein” value (input ligand: none) was 53.9 nM.

With “CCAAGAUAAGGAUAUUGAAGGUUCGACAUGAGGAUCACCCAUGUUAUGUUGGAAAAGGGACAAGAAGGUAUGAAAA [salish99_ex5_r4_215] (Eterna round: R97, puzzle: Exclusion 5)” the “apparent KD of MS2 coat protein” value (input ligand: FMN 200 uM) was 27.6 nM and the “apparent KD of MS2 coat protein” value (input ligand: none) was 34.3 nM.
